The values that follow come from publication PMC4930482.

Holding throughout (assay): coIP
Assay [1] deals with RNF26, wild type (coIP of Figures 5A and 5B) (UniProt Q9BY78). The note with it: HEK293T cells; n = 3; parent: est. 100; read off a plot.
Assay [2] addresses RFP-RNF26 (UniProt Q9BY78). As to conditions: n = 3; parent: est. 100; read off a plot.
For assay [3], the target named is HA-RNF26 (UniProt Q9BY78). The note with it: n = 3; parent: est. 100; read off a plot.

“TOLLIP, wild type (coIP of Figure 5B) (from UniProt Q9H0E2) CUE*”: in assay [1], the percent of parent came out at 13 % Co-IP. Take FLAG-EPS15 (from UniProt P42566) UIM*: the percent of parent in assay [2] turned out to be 14 % Co-IP. For GFP-TAX1BP1 (from UniProt Q86VP1) UBZ2*, the percent of parent in assay [3] stood at 39 % Co-IP.
